Molecular target: HIV-1 reverse transcriptase p66 subunit, wild type (HIV-1)
Assay: glycerol gradient ultracentrifugation

Substance: HIV-1 reverse transcriptase p66 subunit, wild type (enzyme)
- stoichiometry N: 2
